The values that follow come from the supplement of paper PMC5998384.
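Wherever solubility change mitosis vs G1/S (difference of NP-40 vs SDS log2 ratios) is given: synchronized HeLa Kyoto cells (double thymidine block for G1/S, nocodazole release for mitosis), protein amounts in NP-40 versus SDS lysates quantified by mass spectrometry, three biological replicates.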
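Wherever solubility in G1/S (NP-40 vs SDS abundance) is given: HeLa Kyoto cells arrested at G1/S by double thymidine block, proteins quantified by TMT10plex mass spectrometry in mild NP-40 versus SDS extracts, three biological replicates.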
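Wherever thermal stability score vs G1/S (z-score of summed log2 fold changes over temperatures) is given: synchronized HeLa Kyoto cells, proteins quantified by TMT10plex mass spectrometry, three biological replicates, mitosis taken 0.5 h after nocodazole release, G1/S directly after double thymidine block.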

Chain of LSM5 (chain, as listed by the source): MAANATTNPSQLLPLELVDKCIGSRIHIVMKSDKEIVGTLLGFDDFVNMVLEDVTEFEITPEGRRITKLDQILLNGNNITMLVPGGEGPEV

The first series deals with HeLa Kyoto. In words: thermal stability score vs G1/S (z-score of summed log2 fold changes over temperatures); higher = more thermally stable than in G1/S. The following applies: cell cycle stage: early G1 (4.5 h after nocodazole release).
In the case of “MAGRVPSLLVLLVFPSSCLAFRSPLSVFKRFKETTRPFSNECLGTTRPVVPIDSSDFALDIRMPGVTPKQSDTYFCMSMRIPVDEEAFVIDFKPRASMDTVHHMLLFGCNMPSSTGSYWFCDEGTCTDKANILYAWARNAPPTRLPKGVGFRVGGETGSKYFVLQVHYGDISAFRDNNKDCSGVSLHLTRLPQPLIAGMYLMMSVDTVIPAGEKVVNSDISCHYKNYPMHVFAYRVHTHHLGKVVSGYRVRNGQWTLIGRQSPQLPQAFYPVGHPVDVSFGDLLAARCVFTGEGRTEATHIGGTSSDEMCNLYIMYYMEAKHAVSFMTCTQNVAPDMFRTIPPEANIPIPVKSDMVMMHEHHKETEYKDKIPLLQQPKREEEEVLDQGDFYSLLSKLLGEREDVVHVHKYNPTEKAESESDLVAEIANVVQKKDLGRSDAREGAEHERGNAILVRDRIHKFHRLVSTLRPPESRVFSLQQPPPGEGTWEPEHTGDFHMEEALDWPGVYLLPGQVSGVALDPKNNLVIFHRGDHVWDGNSFDSKFVYQQIGLGPIEEDTILVIDPNNAAVLQSSGKNLFYLPHGLSIDKDGNYWVTDVALHQVFKLDPNNKEGPVLILGRSMQPGSDQNHFCQPTDVAVDPGTGAIYVSDGYCNSRIVQFSPSGKFITQWGEESSGSSPLPGQFTVPHSLALVPLLGQLCVADRENGRIQCFKTDTKEFVREIKHSSFGRNVFAISYIPGLLFAVNGKPHFGDQEPVQGFVMNFSNGEIIDIFKPVRKHFDMPHDIVASEDGTVYIGDAHTNTVWKFTLTEKLEHRSVKKAGIEVQEIKEAEAVVETKMENKPTSSELQKMQEKQKLIKEPGSGVPVVLITTLLVIPVVVLLAIAIFIRWKKSRAFGDSEHKLETSSGRVLGRFRGKGSGGLNLGNFFASRKGYSRKGFDRLSTEGSDQEKEDDGSESEEEYSAPLPALAPSSS [PAM]”, the thermal stability score was -1.73.

The series is the same for the next values; noted with them: cell cycle stage: mitosis.
Take “MEVVEAAAAQLETLKFNGTDFGVGEGPAAPSPGSAPVPGTQPPLQSFEGSPDAGQTVEVKPAGEQPLQPVLNAVAAGTPAPQPQPPAESPACGDCVTSPGAAEPARAPDSLETSDSDSDSDSETDSDSSSSSSSSSSSSSSSSSSCISLPPVLSDGDDDLQIEKENKNFPLKTKDELLLNELPSVEELTIILPEDIELKPLGMVSSIIEQLVIIESMTNLPPVNEETVIFKSDRQAAGKIFEIFGPVAHPFYVLRFNSSDHIESKGIKIKETMYFAPSMKDFTQYIFTEKLKQDKGSDASWKNDQEPPPEALDFSDDEKEKEAKQRKKSQIQGRKKLKSEFNEPGEDFTEVHQNWNAHSSASEHAKGYRNREFTRGFSRARYPRSCHGRPPPQHFYNSEHMVSQETSGFPSQRQNNPIMPQYPFPLPVFDMHNFPLRPPPPPPPPPVNMGWATPNMAAHPLLNLPYSLPPPPPPPPLPPPPSSGDSNSHFGPYY [NAF1]”: the thermal stability score is -1.83.

For LSM5, the thermal stability score was -1.99.

In the case of “MWSAGRGGAAWPVLLGLLLALLVPGGGAAKTGAELVTCGSVLKLLNTHHRVRLHSHDIKYGSGSGQQSVTGVEASDDANSYWRIRGGSEGGCPRGSPVRCGQAVRLTHVLTGKNLHTHHFPSPLSNNQEVSAFGEDGEGDDLDLWTVRCSGQHWEREAAVRFQHVGTSVFLSVTGEQYGSPIRGQHEVHGMPSANTHNTWKAMEGIFIKPSVEPSAGHDEL [SDF2L1]”, the thermal stability score was 1.19.

For “MAEFPSKVSTRTSSPAQGAEASVSALRPDLGFVRSRLGALMLLQLVLGLLVWALIADTPYHLYPAYGWVMFVAVFLWLVTIVLFNLYLFQLHMKLYMVPWPLVLMIFNISATVLYITAFIACSAAVDLTSLRGTRPYNQRAAASFFACLVMIAYGVSAFFSYQAWRGVGSNAATSQMAGGYA [PLLP]”, the thermal stability score is -3.25.

“MAALGGDGLRLLSVSRPERPPESAALGGLGPGLCCWVSVFSCLSLACSYVGSLYVWKSELPRDHPAVIKRRFTSVLVVSSLSPLCVLLWRELTGIQPGTSLLTLMGFRLEGIFPAALLPLLLTMILFLGPLMQLSMDCPCDLADGLKVVLAPRSWARCLTDMRWLRNQVIAPLTEELVFRACMLPMLAPCMGLGPAVFTCPLFFGVAHFHHIIEQLRFRQSSVGNIFLSAAFQFSYTAVFGAYTAFLFIRTGHLIGPVLCHSFCNYMGFPAVCAALEHPQRRPLLAGYALGVGLFLLLLQPLTDPKLYGSLPLCVLLERAGDSEAPLCS [RCE1]” had a thermal stability score of -0.247.

For the substance “MAGRVPSLLVLLVFPSSCLAFRSPLSVFKRFKETTRPFSNECLGTTRPVVPIDSSDFALDIRMPGVTPKQSDTYFCMSMRIPVDEEAFVIDFKPRASMDTVHHMLLFGCNMPSSTGSYWFCDEGTCTDKANILYAWARNAPPTRLPKGVGFRVGGETGSKYFVLQVHYGDISAFRDNNKDCSGVSLHLTRLPQPLIAGMYLMMSVDTVIPAGEKVVNSDISCHYKNYPMHVFAYRVHTHHLGKVVSGYRVRNGQWTLIGRQSPQLPQAFYPVGHPVDVSFGDLLAARCVFTGEGRTEATHIGGTSSDEMCNLYIMYYMEAKHAVSFMTCTQNVAPDMFRTIPPEANIPIPVKSDMVMMHEHHKETEYKDKIPLLQQPKREEEEVLDQGDFYSLLSKLLGEREDVVHVHKYNPTEKAESESDLVAEIANVVQKKDLGRSDAREGAEHERGNAILVRDRIHKFHRLVSTLRPPESRVFSLQQPPPGEGTWEPEHTGDFHMEEALDWPGVYLLPGQVSGVALDPKNNLVIFHRGDHVWDGNSFDSKFVYQQIGLGPIEEDTILVIDPNNAAVLQSSGKNLFYLPHGLSIDKDGNYWVTDVALHQVFKLDPNNKEGPVLILGRSMQPGSDQNHFCQPTDVAVDPGTGAIYVSDGYCNSRIVQFSPSGKFITQWGEESSGSSPLPGQFTVPHSLALVPLLGQLCVADRENGRIQCFKTDTKEFVREIKHSSFGRNVFAISYIPGLLFAVNGKPHFGDQEPVQGFVMNFSNGEIIDIFKPVRKHFDMPHDIVASEDGTVYIGDAHTNTVWKFTLTEKLEHRSVKKAGIEVQEIKEAEAVVETKMENKPTSSELQKMQEKQKLIKEPGSGVPVVLITTLLVIPVVVLLAIAIFIRWKKSRAFGDSEHKLETSSGRVLGRFRGKGSGGLNLGNFFASRKGYSRKGFDRLSTEGSDQEKEDDGSESEEEYSAPLPALAPSSS [PAM]”, the thermal stability score is -2.21.

A further series has as its system HeLa Kyoto. In words: solubility in G1/S (NP-40 vs SDS abundance) (log2 ratio); higher = more soluble. The settings on record: cell cycle stage: G1/S.
As for “MAAVGPPQQQVRMAHQQVWAALEVALRVPCLYIIDAIFNSYPDSSQSRFCIVLQIFLRLFGVFASSIVLILSQRSLFKFYTYSSAFLLAATSVLVNYYASLHIDFYGAYNTSAFGIELLPRKGPSLWMALIVLQLTFGIGYVTLLQIHSIYSQLIILDLLVPVIGLITELPLHIRETLLFTSSLILTLNTVFVLAVKLKWFYYSTRYVYLLVRHMYRIYGLQLLMEDTWKRIRFPDILRVFWLTRVTAQATVLMYILRMANETDSFFISWDDFWDLICNLIISGCDSTLTVLGMSAVISSVAHYLGLGILAFIGSTEEDDRRLGFVAPVLFFILALQTGLSGLRPEERLIRLSRNMCLLLTAVLHFIHGMTDPVLMSLSASHVSSFRRHFPVLFVSACLFILPVLLSYVLWHHYALNTWLFAVTAFCVELCLKVIVSLTVYTLFMIDGYYNVLWEKLDDYVYYVRSTGSIIEFIFGVVMFGNGAYTMMFESGSKIRAFMMCLHAYFNIYLQAKNGWKTFMNRRTAVKKINSLPEIKGSRLQEINDVCAICYHEFTTSARITPCNHYFHALCLRKWLYIQDTCPMCHQKVYIEDDIKDNSNVSNNNGFIPPNETPEEAVREAAAESDRELNEDDSTDCDDDVQRERNGVIQHTGAAAEEFNDDTD [RNF139]”, the “solubility in G1/S (log2)” value is -0.206.

The test system of the next series is HeLa Kyoto. In words: solubility change mitosis vs G1/S (difference of NP-40 vs SDS log2 ratios) (log2 ratio difference); higher = more soluble in mitosis.
Conditions: not given
In the case of “MAAVGPPQQQVRMAHQQVWAALEVALRVPCLYIIDAIFNSYPDSSQSRFCIVLQIFLRLFGVFASSIVLILSQRSLFKFYTYSSAFLLAATSVLVNYYASLHIDFYGAYNTSAFGIELLPRKGPSLWMALIVLQLTFGIGYVTLLQIHSIYSQLIILDLLVPVIGLITELPLHIRETLLFTSSLILTLNTVFVLAVKLKWFYYSTRYVYLLVRHMYRIYGLQLLMEDTWKRIRFPDILRVFWLTRVTAQATVLMYILRMANETDSFFISWDDFWDLICNLIISGCDSTLTVLGMSAVISSVAHYLGLGILAFIGSTEEDDRRLGFVAPVLFFILALQTGLSGLRPEERLIRLSRNMCLLLTAVLHFIHGMTDPVLMSLSASHVSSFRRHFPVLFVSACLFILPVLLSYVLWHHYALNTWLFAVTAFCVELCLKVIVSLTVYTLFMIDGYYNVLWEKLDDYVYYVRSTGSIIEFIFGVVMFGNGAYTMMFESGSKIRAFMMCLHAYFNIYLQAKNGWKTFMNRRTAVKKINSLPEIKGSRLQEINDVCAICYHEFTTSARITPCNHYFHALCLRKWLYIQDTCPMCHQKVYIEDDIKDNSNVSNNNGFIPPNETPEEAVREAAAESDRELNEDDSTDCDDDVQRERNGVIQHTGAAAEEFNDDTD [RNF139]”, the “solubility change mitosis (log2)” value is -0.107.

Regarding OXA1L, the “solubility change mitosis (log2)” value is -0.112.

As to MRPL14, the “solubility change mitosis (log2)” value stood at 0.104.

Consider MRPL10, for which the “solubility change mitosis (log2)” value is -0.0658.

As for NEGR1, the “solubility change mitosis (log2)” value was -0.204.
